Numbering of substitutions follows the chain as printed.
B1: EGFPC2_(17) (peptide)
chain: GWLAPEQQQRIYRGNAS
notes: the last 17 residues of CcaA, Synechococcus elongatus PCC 7942; residues 1-255 of CcaA replaced by EGFP-GSGGS; EGFP amplified from pEF-gfp (Addgene); source: E. coli BL21 (DE3), purified (Ni-NTA, H6Ub cleaved, SEC); not shown: EGFP with GSGGS linker, N-terminal, kept; His6-ubiquitin, N-terminal, cleaved
B2: SeM58-K62D (natural protein, Synechococcus elongatus PCC 7942, UniProt Q03513 1-539, looked up)
chain: MPSPTTVPVATAGRLAEPYIDPAAQVHAIASIIGDVRIAAGVRVAAGVSIRADEGAPFQVGDESILQEGAVIHGLEYGRVLGDDQADYSVWIGQRVAITHKALIHGPAYLGDDCFVGFRSTVFNARVGAGSVIMMHALVQDVEIPPGRYVPSGAIITTQQQADRLPEVRPEDREFARHIIGSPPVIVRSTPAATADFHSTPTPSPLRPSSSEATTVSAYNGQGRLSSEVITQVRSLLNQGYRIGTEHADKRRFRTSSWQPCAPIQSTNERQVLSELENCLSEHEGEYVRLLGIDTNTRSRVFEALIQRPDGSVPESLGSQPVAVASGGGRQSSYASVSGNLSAEVVNKVRNLLAQGYRIGTEHADKRRFRTSSWQSCAPIQSSNERQVLAELENCLSEHEGEYVRLLGIDTASRSRVFEALIQDPQGPVGSAKAAAAPVSSATPSSHSYTSNGSSSSDVAGQVRGLLAQGYRISAEVADKRRFQTSSWQSLPALSGQSEATVLPALESILQEHKGKYVRLIGIDPAARRRVAELLIQKP
notes: CcmM (M58), Synechococcus elongatus PCC 7942, point mutant in the γCAL domain; source: E. coli BL21 (DE3), purified as wild-type M58; not shown: His6-ubiquitin, N-terminal, cleaved
B3: SeM58-R95D (natural protein, Synechococcus elongatus PCC 7942, UniProt Q03513 1-539, looked up)
chain: B2 chain with D62K, R95D
notes: as for B2
B4: SeM58-E76K (natural protein, Synechococcus elongatus PCC 7942, UniProt Q03513 1-539, looked up)
chain: B2 chain with D62K, E76K
notes: as for B2
B5: SeM58-D249K (natural protein, Synechococcus elongatus PCC 7942, UniProt Q03513 1-539, looked up)
chain: B2 chain with D62K, D249K
notes: CcmM (M58), Synechococcus elongatus PCC 7942, point mutant in SSUL1; source: E. coli BL21 (DE3), purified as wild-type M58; not shown: His6-ubiquitin, N-terminal, cleaved
B6: SeM58-R43D (natural protein, Synechococcus elongatus PCC 7942, UniProt Q03513 1-539, looked up)
chain: B2 chain with R43D, D62K
notes: as for B2
B7: SeM58-R79D (natural protein, Synechococcus elongatus PCC 7942, UniProt Q03513 1-539, looked up)
chain: B2 chain with D62K, R79D
notes: as for B2
B8: SeM58-E246K (natural protein, Synechococcus elongatus PCC 7942, UniProt Q03513 1-539, looked up)
chain: B2 chain with D62K, E246K
notes: as for B5
B9: SeM58-R37D (natural protein, Synechococcus elongatus PCC 7942, UniProt Q03513 1-539, looked up)
chain: B2 chain with R37D, D62K
notes: as for B2
B10: SeM58-D21K (natural protein, Synechococcus elongatus PCC 7942, UniProt Q03513 1-539, looked up)
chain: B2 chain with D21K, D62K
notes: as for B2
B11: SeM58-E303K (natural protein, Synechococcus elongatus PCC 7942, UniProt Q03513 1-539, looked up)
chain: B2 chain with D62K, E303K
notes: as for B5
B12: SeM58-D294K (natural protein, Synechococcus elongatus PCC 7942, UniProt Q03513 1-539, looked up)
chain: B2 chain with D62K, D294K
notes: as for B5
B13: SeM58-E17K (natural protein, Synechococcus elongatus PCC 7942, UniProt Q03513 1-539, looked up)
chain: B2 chain with E17K, D62K
notes: as for B2
B14: SeM58-E286K (natural protein, Synechococcus elongatus PCC 7942, UniProt Q03513 1-539, looked up)
chain: B2 chain with D62K, E286K
notes: as for B5
B15: SeM58-D112K (natural protein, Synechococcus elongatus PCC 7942, UniProt Q03513 1-539, looked up)
chain: B2 chain with D62K, D112K
notes: as for B2
B16: SeM58-D35K (natural protein, Synechococcus elongatus PCC 7942, UniProt Q03513 1-539, looked up)
chain: B2 chain with D35K, D62K
notes: as for B2
B17: SeM58-R126D (natural protein, Synechococcus elongatus PCC 7942, UniProt Q03513 1-539, looked up)
chain: B2 chain with D62K, R126D
notes: as for B2
B18: γCAL domain of M58 (residues 1-198) (domain or fragment, Synechococcus elongatus PCC 7942, UniProt Q03513 1-198, looked up)
chain: MPSPTTVPVATAGRLAEPYIDPAAQVHAIASIIGDVRIAAGVRVAAGVSIRADEGAPFQVGKESILQEGAVIHGLEYGRVLGDDQADYSVWIGQRVAITHKALIHGPAYLGDDCFVGFRSTVFNARVGAGSVIMMHALVQDVEIPPGRYVPSGAIITTQQQADRLPEVRPEDREFARHIIGSPPVIVRSTPAATADFH
notes: also called γCAL198; source: E. coli BL21 (DE3), purified (Ni-NTA, H6Ub cleaved, SEC); not shown: His6-ubiquitin, N-terminal, cleaved
B19: γCAL domain of M58 (residues 1-181) (domain or fragment, Synechococcus elongatus PCC 7942, UniProt Q03513 1-181, looked up)
chain: MPSPTTVPVATAGRLAEPYIDPAAQVHAIASIIGDVRIAAGVRVAAGVSIRADEGAPFQVGKESILQEGAVIHGLEYGRVLGDDQADYSVWIGQRVAITHKALIHGPAYLGDDCFVGFRSTVFNARVGAGSVIMMHALVQDVEIPPGRYVPSGAIITTQQQADRLPEVRPEDREFARHIIG
notes: residues 1-15 disordered in the crystals; also called γCAL181; source: E. coli BL21 (DE3), purified (Ni-NTA, H6Ub cleaved, SEC); not shown: His6-ubiquitin, N-terminal, cleaved

target: B18; assay: ITC; EGFPC2_(17) (365 μM) in the syringe titrated into γCAL(1–198) (14 μM); 20 °C; 50 mM Tris pH 8.0/100 mM KCl/10 mM Mg(OAc)2; one-site binding model; details: both partners purified

| Kd | stoichiometry N | Molecule |
| --- | --- | --- |
| ~2000 nM | ~2.7 per γCAL198 trimer | B1 |

target: SeM58-R251D (Synechococcus elongatus PCC 7942) (UniProt Q03513); assay: SEC-MALS; 2 mg/ml protein; 50 mM Tris-HCl pH 8.0/150 mM KCl or 50 mM Tris-HCl pH 8.0/500 mM KCl/5 mM DTT; 25 °C; oligomeric state in solution; details: not given

| stoichiometry N | Molecule |
| --- | --- |
| 3 | SeM58-R251D (from UniProt Q03513 1-539) (natural protein) |

target: SeM58-R252D (Synechococcus elongatus PCC 7942) (UniProt Q03513); assay: as above; details: not given

| stoichiometry N | Molecule |
| --- | --- |
| 3 | SeM58-R252D (from UniProt Q03513 1-539) (natural protein) |

target: SeM58-R367D (Synechococcus elongatus PCC 7942) (UniProt Q03513); assay: as above; details: not given

| stoichiometry N | Molecule |
| --- | --- |
| 3 | SeM58-R367D (from UniProt Q03513 1-539) (natural protein) |

target: SeM58-R298D (Synechococcus elongatus PCC 7942) (UniProt Q03513); assay: as above; details: not given

| stoichiometry N | Molecule |
| --- | --- |
| 3 | SeM58-R298D (from UniProt Q03513 1-539) (natural protein) |

target: SeM58-R481D (Synechococcus elongatus PCC 7942) (UniProt Q03513); assay: as above; details: not given

| stoichiometry N | Molecule |
| --- | --- |
| 3 | SeM58-R481D (from UniProt Q03513 1-539) (natural protein) |

Target: the molecule itself
Assay: as above
Details: not given

| Molecule | stoichiometry N |
| --- | --- |
| B2 | 3 |
| B3 | 3 |
| B4 | 3 |
| B5 | 3 |
| B6 | 3 |
| B7 | 3 |
| B8 | 3 |
| B9 | 3 |
| B10 | 3 |
| B11 | 3 |
| B12 | 3 |
| B13 | 3 |
| B14 | 3 |
| B15 | 3 |
| B16 | 3 |
| B17 | 3 |
| B18 | 3 |
| B19 | 3 |
